Laboratory results taken from the supplement of paper PMC7125110.
± gives the standard error. Fewer inactive variants are shown than the library holds.

B1: glmS ribozyme (parent)
chain: AUAAAAGCGCCAGAACUACAGAAAUGUAGUUGACGAGGAGGAGGUUUAUCGAAUUUUCGGCGGAUGCCUCCAAA

Variants of: B1
Experiment: self-cleavage kobs at 2500 uM GlcN6P; higher = faster cleavage; RNA array
Conditions: with glucosamine-6-phosphate
Procedure, shortened: (§1)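 Over ~14 h at 37 °C, tiles were imaged as glucosamine-6-phosphate (40 μM to 10 mM) in HEPES/KCl/Mg(OAc)2 buffer flowed across sequenced MiSeq chips. The chips carried barcoded ribozyme variants transcribed in situ by E. coli RNA polymerase and tracked with a hybridised Cy3 probe. After normalisation to baseline and to non-cleaving reference variants, one- or two-exponential decay fits of per-tile medians gave kobs. kcat and KM followed from weighted Michaelis–Menten fits across concentrations.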

Variant | self-cleavage kobs at 2500 uM GlcN6P [s⁻¹]
C16U U31G G41C C67U | < 1e-05
G9A A33G G43C | < 1e-05
G13U G35U U54A | < 1e-05
G32C G37C C50A G60C | < 1e-05
U30C G32C U55A | 0.000128 ± 3.1e-05
G7C C50U A64C C68A | < 1e-05
U30C C58G C68U | 0.000104 ± 2.9e-05
A6C G7C G63A | < 1e-05
A15G G51U C61A | < 1e-05
C8G A15G U31A G40C G63C | < 1e-05
C8A C50U A64U | < 1e-05
G37A A52U U57A | 8.64e-05 ± 3.1e-05
A20C A48G | 0.000134 ± 2.6e-05
C11A C34G U49A | < 1e-05
A33G U47C C61G | < 1e-05
A12U A36C G40U U46A C61G | < 1e-05
C10U C16G C61U C71U | < 1e-05
C16A U55A G59C C67U C70G | 9.74e-05 ± 3.6e-05
C8A A12C C68U | < 1e-05
A12G G13U G51U G63U C70A | 0.000271 ± 9.9e-05
U30G G35U G59U | < 1e-05
G7A C10G G37U | < 1e-05
A14C A15G G62C C67A | < 1e-05
A14C U30G C58G | 5.75e-05 ± 2.4e-05
A6U A12C G51A | < 1e-05
U31C C34A G37C | < 1e-05

Variant | self-cleavage kobs at 2500 uM GlcN6P [s⁻¹]
G29A C50G U55A | 0.000211 ± 8.8e-05
G29C C50U C68A | 7.07e-05 ± 2.7e-05
G43A G66U C67U C71U | < 1e-05
A36U G44C U46G | < 1e-05
A12U C34U G38A C50G | 0.000122 ± 3e-05
A6U G35U G51U | < 1e-05
G7U C16U A36G G37U G41U C61A | < 1e-05
G44C G62A C68G | < 1e-05
A15G U55A A64U | 9.74e-05 ± 1.8e-05
C11U U31C C50A | < 1e-05
G51C G66A | < 1e-05
G40A A42G A53U | 0.000522 ± 0.00021
U57A A64U C67U U69G | 8.87e-05 ± 2.4e-05
C16U G32U U46G | 6.51e-05 ± 2.5e-05
A39U A48G U57A G60U C70G | < 1e-05
A15G U45G U46C | 0.00283 ± 0.001
A14U G43C A53U G59C | < 1e-05
G60U C67A U69A | < 1e-05
U46A A52G G63U C67G | < 1e-05
G32C C50G C67G | 4.82e-05 ± 1.8e-05
G13U A14C G32U C61G | < 1e-05
U30C G35U U65C | < 1e-05
A12G G32U A36U U49A C50G | < 1e-05
C11A G21U A39C U46A U57C | < 1e-05
C10G A42G G43A | < 1e-05
U30C G43A U46G C67U | < 1e-05

Variant | self-cleavage kobs at 2500 uM GlcN6P [s⁻¹]
A33C U56C G63U | < 1e-05
A14U C67A C71U | 0.000265 ± 5.2e-05
U30C C34G G44C U57G C70U | < 1e-05
C8U G43U G62C C68U | < 1e-05
C10A A64C C67G | 8.61e-05 ± 3.1e-05
G13U U47A C50U | < 1e-05
A14C U45G C68U | 3.4e-05 ± 1.6e-05
A12G G29C G35U A39U G41C A64G | < 1e-05
A48U G60C G63C C71U | < 1e-05
G7U G9A C58A C61A C67U | < 1e-05
U54A C61A A64U C68U | 8.54e-05 ± 3.8e-05
G7C U31C U46C G66U | < 1e-05
C8U A14G C50U C71G | < 1e-05
U30A U46G C68G | 0.000143 ± 6.7e-05
C11U G40A U49C G59C | < 1e-05
A6G C10G U30A G32U U56G | < 1e-05
C11U G35C U47G G63A | < 1e-05
G41U G44U C67U U69G | < 1e-05
C16A G43U G51A | < 1e-05
G9C U45G C50U G59U | < 1e-05
C10G U30C G38C U47A | < 1e-05
A12U A14G U46A C50G | < 1e-05
G13C G38U U47A C70G | < 1e-05
G13A G44U A64U | < 1e-05
A6G U55C C71A | < 1e-05

Variants of: B1
Experiment: self-cleavage kobs at 640 uM GlcN6P; higher = faster cleavage; RNA array
Conditions: with glucosamine-6-phosphate
Procedure, shortened: as §1

Variant | self-cleavage kobs at 640 uM GlcN6P [s⁻¹]
U30C G32C U55A | 8.42e-05 ± 1.7e-05
C11U G41U U45C | < 1e-05
G40A A42G A53U | 0.000733 ± 0.00023
A6C G41A U54G G59A G62C | < 1e-05
C11U A36C G43U C71A | < 1e-05
G7U G9A C58A C61A C67U | < 1e-05
U47G U55A C68G C71G | 0.000142 ± 4.5e-05

Variants of: B1
Experiment: self-cleavage kobs at 10000 uM GlcN6P; higher = faster cleavage; RNA array
Conditions: with glucosamine-6-phosphate
Procedure, shortened: as §1

Variant | self-cleavage kobs at 10000 uM GlcN6P [s⁻¹]
G37A A52U U57A | 0.000104 ± 1.9e-05
G51C G66A | < 1e-05
C16U G32U U46G | 0.000138 ± 2.5e-05
A6C G41A U54G G59A G62C | < 1e-05
U47G U55A C68G C71G | 4.14e-05 ± 1.5e-05
